Measured values: publication PMC4287183, “Affinity maturation of Cry1Aa toxin to the Bombyx mori cadherin-like receptor by directed evolution based on phage display and biopanning selections of domain II loop 2 mutant toxins” (MicrobiologyOpen, 2014)

B1: Cry1Aa toxin-binding region of Bombyx mori cadherin-like receptor BtR175 (BtR175-TBR) (domain or fragment)
chain: ELVIRPYNFHAPVFVFPKHGATLRLARERAVVNGLLATVDGEFLNRIVATDEDGLHAGQVAFEVVGDTEAVDYFHIVNDGENSGTLMLKQLFPEDIREFEVTIRATDGGTEPRPLSTDCTFSVVFVPIQGEPIFPTSTHTVAFIEKEAGLLERHELPRAEDRKNHLCSDDCHNIYYRIIDGNNDGHFGLDETTNVLFLVKELDRSVSETYTLTIAASNSPTGGIALTSTITITVNVREADPQPYFVRDLYTAGISTSDSINRELLILQATHSENAPIIYTIDWSTMVTDPTLASVRETAFILNPHTGVLTLNIQPTASMHGMFEFQVVATDPAGYSDRANVKIYLISTRNRVFFLFV
notes: The limits are stated for the GST fusion used in biopanning; also called GST-BtR175-TBR; source: prepared as described previously (Fujii et al. 2013); GST-BtR175-TBR from pGEX4t-3, harvested as inclusion bodies and solubilized

Columns and labels:
[1] = molecular target: Cry1Aa toxin-binding region of Bombyx mori cadherin-like receptor BtR175 (BtR175-TBR) (Bombyx mori) (UniProt Q9XY09); assay: SPR; BtR175-TBR immobilized on a CM5 chip by amine coupling (Biacore J); four concentrations of toxin in PBST (0.005% Tween, pH 7.4) for 120 sec, dissociation 240 sec; 1:1 Langmuir model, global fitting; KD = kd/ka
[2] = molecular target: wild-type Cry1Aa toxin (trypsin-activated) (B. thuringiensis subsp. kurstaki strain …, UniProt P0A366 1-1176, Trypsin-activated toxin core, unmutated wild type. Limits are not printed: the N-terminus at Ile29 follows the conventional trypsin cut after Arg28 (and the IETGYTP start in the phage-display primer),); assay: as above; conditions: both partners purified

Molecule	Kd [1]	koff [1]	Kd [2]	koff [2]
Cry1Aa domain II loop 2 mutant toxin 371PHRP374 (trypsin-activated) (from UniProt P0A366 1-1176) (ligand)	8.3 nM	0.00122 s⁻¹		
Cry1Aa domain II loop 2 mutant toxin 371WGLA374 (trypsin-activated) (from UniProt P0A366 1-1176) (ligand)	1.56 nM	0.00061 s⁻¹		
Cry1Aa domain II loop 2 mutant toxin 371WPHH374 (trypsin-activated) (from UniProt P0A366 1-1176) (ligand)	1.55 nM	0.00066 s⁻¹		
Cry1Aa domain II loop 2 mutant toxin 371WRPQ374 (trypsin-activated) (from UniProt P0A366 1-1176) (ligand)	0.5 nM	0.00102 s⁻¹		
B1			25 nM	0.00267 s⁻¹
